Experimental data reported in patent US20190177400A1, “BIOLOGICAL UPGRADING OF HYDROCARBON STREAMS WITH NICKEL-BINDING PROTEINS” (ExxonMobil Research and Engineering Company, priority 2017, published 2019).
Like-named read-outs stand apart in the source and are kept apart here.

B1: SlyD: nickel chaperone from E. coli, SEQ ID NO 4 (protein, listed as Escherichia coli)
chain: MKVAKDLVVSLAYQVRTEDGVLVDESPVSAPLDYLHGHGSLISGLETALEGHEVGDKFDVAVGANDAYGQYDENLVQRVPKDVFMGVDELQVGMRFLAETDQGPVPVEITAVEDDHVVVDGNHMLAGQNLKFNVEVVAIREATEEELAHGHVHGAHDHHHDHDHDGCCGGHGHDHGHEHGGEGCCGGKGNGGCGCH
B2: UreE: nickel chaperone from E. aerogenes, SEQ ID NO 5 (protein)
chain: MLYLTQRLEIPAAATASVTLPIDVRVKSRVKVTLNDGRDAGLLLPRGLLLRGGDVLSNEEGTEFVQVIAADEEVSVVRCDDPFMLAKACYHLGNRHVPLQIMPGELRYHHDHVLDDMLRQFGLTVTFGQLPFEPEAGAYASESHGHHHAHHDHHAHSH
modifications: Enterobacter aerogenes
B3: B. japonicum HypB: nickel chaperone HypB from B. japonicum, SEQ ID NO 3 (protein, listed as Helicobacter pylori)
chain: MHEYSVVSSLIALCEEHAKKNQAHKIERVVVGIGERSAMDKSLFVSAFETFREESLVCKDAVLDIVDEKVELECKDCSHVFKPNALDYGVCEKCHSKNVVITQGNEMRLLSLEMLAE
B4: myoglobin conjugated to activated cellulose: myoglobin conjugated to activated cellulose, reported by Smith et al. (conjugate, UniProt P68082 2-154, looked up)
Myoglobin: GLSDGEWQQVLNVWGKVEADIAGHGQEVLIRLFTGHPETLEKFDKFKHLKTEAEMKASEDLKKHGTVVLTALGGILKKKGHHEAELKPLAQSHATKHKIPIKYLEFISDAIIHVLHSKHPGDFGADAQGAMTKALELFRNDIAAKYKELGFQG
modifications: conjugated to activated cellulose
B5: NikR: metalloregulator from H. pylori, SEQ ID NO 7 (protein, listed as Escherichia coli)
chain: MRLLHTMLRVGDLQRSIDFYTKVLGMKLLRTSENPEYKYSLAFVGYGPETEEAVIELTYNWGVDKYELGTAYGHIALSVDNAAEACEKIRQNGGNVTREAGPVKGGTTVIAFVEDPDGYKIELIEEKDAGRGLGN
B6: E. coli HypB: nickel chaperone HypB from E. coli, SEQ ID NO 2 (protein, listed as Escherichia coli)
chain: MCTTCGCGEGNLYIEGDEHNPHSAFRSAPFAPAARPKMKITGIKAPEFTPSQTEEGDLHYGHGEAGTHAPGMSQRRMLEVEIDVLDKNNRLAERNRARFAARKQLVLNLVSSPGSGKTTLLTETLMRLKDSVPCAVIEGDQQTVNDAARIRATGTPAIQVNTGKGCHLDAQMIADAAPRLPLDDNGILFIENVGNLVCPASFDLGEKHKVAVLSVTEGEDKPLKYPHMFAAASLMLLNKVDLLPYLNFDVEKCIACAREVNPEIEIILISATSGEGMDQWLNWLETQRCA
B7: HypA: nickel chaperone from H. pylori, SEQ ID NO 1, His-tagged, expressed in E. coli (protein, listed as Bradyrhizobium japonicum)
chain: MCTVCGCSDGKASIEHAHDHHHDHGHDHDHGHDGHHHHHHGHDQDHHHHHDHAHGDAGLLDCGANPAGQKITGMSSDRIIQVERDILGKNDRLAADNRARFRADEVLAFNLVSSPGAGKTSLLVRAVSELKDSFAIGVIEGDQQTSNDAERIRATGVPAIQVNTGKGCHLDAAMVGEAYDRLPWLNGGLLFIENVGNLVCPAAFDLGEACKIVVFSTTEGEDKPLKYPDMFAASSLMLINKIDLASVLDFDLARTIEYARRVNPKIEVLTLSARTGEGFAAFYAWIRKRMAATTPAAMTAAE
modifications: His-tag
B8: GloA: nickel metalloenzyme from E. coli, SEQ ID NO 6 (protein, listed as Helicobacter pylori)
chain: MDTPNKDDSIIRFSVSLQQNLLDELDNRIIKNGYSSRSELVRDMIREKLVEDNWAEDNPNDGSKIAVLVVIYDHHQRELNQRMIDIQHTSGTHVLCTTHIHMDGHNCLETIILKGNSLEIQRLQLEIGGLRGVKFAKLTKASSFEHNE

Experiments:
[1] = UV-VIS screening of binding and demetallation of Ni(II)-protoporphyrin (IX); format: biochemical; conditions: 50 μM porphyrin, 24 hrs, room temperature
Protocol: (§1) Three nickel- and one vanadium-containing model porphyrins (Ni(II)-protoporphyrin (IX); Ni(II)-meso-tetra-(4-carboxyphenyl) porphine; Ni(II)-meso-tetra-(N-methyl-4-pyridyl) porphine tetrachloride; & VO-meso-tetra-(N-methyl-4-pyridyl) porphine tetrachloride) were chosen as test substrates for the eight representative NBPs. […] The proteins' nickel- and vanadium-binding capabilities were assayed in a single phase, aqueous environment to eliminate mass transfer limitations that occur between multiple phases and stressful non-aqueous to conditions that may change protein structure and/or inhibit function. This approach minimizes false-negative results to maximize the number of potential protein candidates that can be identified.
A shift in the wavelength of maximal absorbance, commonly referred to as the “Soret band,” indicates a change in porphyrin conformation or a protein-porphyrin interaction.
(§2) To prepare crude protein, aliquots were thawed on ice and diluted 4-fold with protein assay buffer (PAB). To isolate purified nickel-binding proteins, protein aliquots were thawed on ice and proteins of interest were purified by HIS-tag-Ni-NTA column affinity followed by size exclusion chromatography with PD-10 desalting columns. Purified protein was eluted in PAB, collected in the first 2 mL PD-10 column flow-through fraction. Relative to the initial protein concentration, samples were diluted 4-fold to parallel crude protein samples.
(§3) Amber tubes were used for all assays to protect samples from light. Crude and purified protein samples were combined with porphyrin substrates, to achieve final concentrations in Table 3, and total assay volumes were raised to 10 mL with Tris buffer. Absorbance of a 2.4 mL sample was measured in a 1 cm quartz cuvette, at room temperature, 1 nm resolution, and 0.7 sec. integration time on an Evolution201® UV-VIS spectrophotometer with Thermo INSIGHT® software. Samples were incubated for 24 hrs. at room temperature and 75 RPM and their final UV-VIS absorbance spectra was measured. An absorbance baseline was collected using Tris buffer at the beginning of each time point and 1% error was observed between technical replicates.
(§4) Porphyrin Demetallation Calculation was calculated according to the formula (EVf−EXPf)÷EVo=% specific demetallation.

[2] = UV-VIS screening of binding and demetallation of Ni(II)-meso-tetra-(4-carboxyphenyl) porphine; format: biochemical; conditions: 10 μM porphyrin, 24 hrs
Protocol: as §1
UV-VIS spectroscopy was used for initial screening of protein activity against numerous model compounds because each model porphyrin has a characteristic UV-VIS absorbance spectrum. A shift in the wavelength of maximal absorbance, commonly referred to as the “Soret band,” indicates a change in porphyrin conformation or a protein-porphyrin interaction.
as §2
as §3, with “replicates. Crude, empty pET28b vector (EV) strain lysate protein and PAB only controls were run in parallel with experimental samples (EXP) for each porphyrin.” for “replicates.”
as §4

[3] = cited from earlier work
[4] = UV-VIS screening of binding and demetallation of Ni(II)-meso-tetra-(N-methyl-4-pyridyl) porphine tetrachloride; format: biochemical; conditions: crude and purified protein, 10 μM porphyrin, 24 hrs
Protocol: as §1, with “This approach minimizes false-negative results to maximize the number of potential protein candidates that can be identified.” left out
(§5) UV-VIS spectroscopy was used for initial screening of protein activity against numerous model compounds because each model porphyrin has a characteristic UV-VIS absorbance spectrum. A shift in the wavelength of maximal absorbance, commonly referred to as the “Soret band,” indicates a change in porphyrin conformation or a protein-porphyrin interaction. […]
(§6) Amber tubes were used for all assays to protect samples from light. […] Absorbance of a 2.4 mL sample was measured in a 1 cm quartz cuvette, at room temperature, 1 nm resolution, and 0.7 sec. integration time on an Evolution201® UV-VIS spectrophotometer with Thermo INSIGHT® software. Samples were incubated for 24 hrs. at room temperature and 75 RPM and their final UV-VIS absorbance spectra was measured. […]

[5] = UV-VIS screening of binding and demetallation of VO-meso-tetra-(N-methyl-4-pyridyl) porphine tetrachloride; format: biochemical; conditions: crude and purified protein, 10 μM porphyrin, 24 hrs
Protocol: as §1, with “This approach minimizes false-negative results to maximize the number of potential protein candidates that can be identified.” left out
as §5, §6

[6] = selective, repetitive treatment; cited from earlier work
[7] = site (24-His rich N-terminus; His2 and Glu2; micromolar Kd sites)

Row | Molecule | reduction of Ni(II)-protoporphyrin (IX) Soret band (specific demetallation) ([1]; crude protein lysate) | reduction of Ni(II)-protoporphyrin (IX) Soret band (specific demetallation) ([1]; purified protein) | binding / demetallation (change of Soret band) ([2]; crude and purified protein) | also measured
1 | Hpn: nickel storage protein from H. pylori, SEQ ID NO 8; very small, histidine rich (MAHHEEQHGGHHHHHHHTHHHHYHGGEHHHHHHSSHHEEGCCSTSDSHHQEEGCCHGHHE; listed as Helicobacter pylori) | did not affect the Soret band | – | – | binding / demetallation (change of Soret band) ([2]; crude lysate only): did not affect the Soret band; affinities for nickel (II) ions ([3]; short repeating motifs, reversible binding): micromolar
2 | B1 | 12% | no change was observed | only minimal changes to the Soret band were observed | Kd of Ni-binding ([3]; C-terminal metal-binding domain (MBD)): nanomolar Kd.
3 | B2 | remained unchanged | 17% | Neither binding nor demetallation | Ni-binding: Ni (II) ions bound ([3]; per dimer): 6 Ni (II) per Ni (II) per dimer
4 | B3 | 29% | 99% | Neither binding nor demetallation was observed | binding / demetallation (change of Soret band) [4]: Neither binding to nor demetallation of these substrates was observed; binding / demetallation (change of Soret band) [5]: Neither binding to nor demetallation of these substrates was observed; Ni-binding: Ni (II) ions bound [3, 7]: 9 Ni (II) on 24-
5 | B4 | – | – | – | removal of V, Ni porphyrins [6]: up to 22%
6 | B5 | remained unchanged | 56% | Neither binding to nor demetallation was observed | Kd of Ni-binding ([3]; 4 Ni (II) per complex, coordinated by His88, His99, His101 & Cys107): nanomolar Kd; Ni-binding: Ni (II) ions bound ([3]; per complex, nanomolar Kd sites): 4 Ni (II) per Ni (II) per complex; Kd of Ni-binding ([3]; up to 10 Ni (II) sites): micromolar Kd
7 | B6 | 17% | 83% | Neither binding nor demetallation was observed | Kd of Ni-binding ([3]; N-terminal Ni binding domain): has micromolar; Kd of Ni-binding ([3]; SEQ ID NO: 12 binding sites in the C-terminal domain): subpicomolar; Ni-binding: Ni (II) ions bound ([3]; per monomer): 2 Ni (II) ions per Ni (II) per monomer
8 | B7 | did not display Ni(II)-protoporphyrin (IX) binding or demetallation capabilities | 59% | neither binding nor demetallation was observed | Ni-binding: Ni (II) ions bound ([3]; per dimer): 2 Ni (II) ions per Ni (II) per dimer
9 | B8 | little or no binding and demetallation | little or no binding and demetallation | little or no binding and demetallation | Ni-binding: Ni (II) ions bound [3, 7]: 2 Ni (II),
